Results published in article PMC6715182, “Helicobacter pylori senses bleach (HOCl) as a chemoattractant using a cytosolic chemoreceptor” (PLoS Biology, 2019).

How the values were obtained:
[1] = test system: Nc1ncnc2c1ncn2[C@@H]1O[C@H](COP(=O)(O)OP(=O)(O)OP(=O)(O)O)[C@@H](O)[C@H]1O; experiment: purified protein; conditions: Mg2+ ([…] MgCl2)
[2] = biological target: CheW (Escherichia coli) (UniProt P0A964); conditions: cited from earlier work
[3] = biological target: Helicobacter pylori transducer-like protein D lacking the N-terminal His tag, TlpD(-His) (Helicobacter pylori (SS1 strain)) (UniProt B5Z6X0); experiment: AUC; interference experiments, 3 x 28 uM TlpD(-His) in PBS (pH 7), 1 mM TCEP, 20 C, 55,000 rpm; KD from the integrated monomer and dimer peaks; dimer to monomers

Chain of CheA (P07363 whole entry): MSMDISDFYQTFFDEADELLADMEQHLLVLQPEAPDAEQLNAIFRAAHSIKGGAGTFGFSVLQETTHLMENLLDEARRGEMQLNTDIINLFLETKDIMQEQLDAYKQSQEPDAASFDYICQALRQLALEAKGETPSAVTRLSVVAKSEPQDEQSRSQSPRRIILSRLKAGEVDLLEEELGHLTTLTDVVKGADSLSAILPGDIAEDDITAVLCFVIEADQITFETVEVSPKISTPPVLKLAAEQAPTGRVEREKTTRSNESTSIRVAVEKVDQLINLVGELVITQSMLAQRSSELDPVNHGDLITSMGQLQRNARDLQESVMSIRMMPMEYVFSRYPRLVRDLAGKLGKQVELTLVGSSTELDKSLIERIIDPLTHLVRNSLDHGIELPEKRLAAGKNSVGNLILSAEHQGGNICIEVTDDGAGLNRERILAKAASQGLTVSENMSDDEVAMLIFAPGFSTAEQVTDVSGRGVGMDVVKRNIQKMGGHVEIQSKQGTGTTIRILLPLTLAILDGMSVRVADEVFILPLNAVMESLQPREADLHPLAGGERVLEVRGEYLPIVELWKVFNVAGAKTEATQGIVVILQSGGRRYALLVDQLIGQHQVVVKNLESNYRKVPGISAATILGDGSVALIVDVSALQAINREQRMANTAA

## CheA (Helicobacter pylori G27)
[1]
  Km: 136 µM

## CheA (from UniProt P07363)
[2]
  Kd: 17 µM

## Helicobacter pylori transducer-like protein D lacking the N-terminal His tag, TlpD(-His) (from UniProt B5Z6X0 1-433) (receptor)
[3]
  Kd: 0.0657 µM
